{"source": "paper doi:10.1101/2023.07.23.550228", "biological_target": "GvpT (B. megaterium)", "experiment": "SDS-PAGE and Western blot"}
{"substance": "GvpT (natural protein)", "values": [{"measurement": "stoichiometry N", "value": 2}]}
